What was measured:
[1] = system: His14-xlGATE16-MBP
[2] = system: His14-xlLC3B-MBP

Substance: wheat (Triticum) Atg4 ortholog (trAtg4)
- protease concentration for significant cleavage, against its cognate substrate trAtg8 and the yeast substrate [1]: the Xenopus xlGATE16 substrate required drastically (>100-fold) higher trAtg4 concentrations for significant cleavage
- substrate cleavage in protease titration (100 µM substrate, 1 h, 25° C.) [2]: xlLC3B cleavage by trAtg4 was only barely detectable

Reference: patent US20180195056
